Laboratory results: article PMC7094256 (Febs Letters, 2005)

B1: GST-tagged human heterogeneous nuclear ribonucleoprotein A1 (natural protein)
chain: MSKSESPKEPEQLRKLFIGGLSFETTDESLRSHFEQWGTLTDCVVMRDPNTKRSRGFGFVTYATVEEVDAAMNARPHKVDGRVVEPKRAVSREDSQRPGAHLTVKKIFVGGIKEDTEEHHLRDYFEQYGKIEVIEIMTDRGSGKKRGFAFVTFDDHDSVDKIVIQKYHTVNGHNCEVRKALSKQEMASASSSQRGRSGSGNFGGGRGGGFGGNDNFGRGGNFSGRGGFGGSRGGGGYGGSGDGYNGFGNDGSNFGGGGSYNDFGNYNNQSSNFGPMKGGNFGGRSSGPYGGGGQYFAKPRNQGGYGGSSSSSSYGSGRRF

How the values were obtained:
[1] = molecular target: B1; test: SPR
[2] = molecular target: His-tagged nucleocapsid protein of SARS coronavirus (SARS coronavirus, UniProt P59595 1-422); test: SPR
Sequence of His-tagged nucleocapsid protein of SARS coronavirus (P59595 whole entry): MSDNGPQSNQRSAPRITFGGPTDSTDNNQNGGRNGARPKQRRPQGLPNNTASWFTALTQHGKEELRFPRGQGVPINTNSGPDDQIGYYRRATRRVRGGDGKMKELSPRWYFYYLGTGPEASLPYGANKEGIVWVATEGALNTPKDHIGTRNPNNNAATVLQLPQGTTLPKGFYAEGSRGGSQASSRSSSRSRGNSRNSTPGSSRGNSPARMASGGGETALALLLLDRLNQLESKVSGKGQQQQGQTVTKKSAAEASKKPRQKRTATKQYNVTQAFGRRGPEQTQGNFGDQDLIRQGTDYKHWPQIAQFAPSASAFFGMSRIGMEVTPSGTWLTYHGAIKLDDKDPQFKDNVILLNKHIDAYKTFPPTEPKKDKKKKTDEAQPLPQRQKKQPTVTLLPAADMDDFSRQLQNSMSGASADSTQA

Row | Binder | Kd [1] | Kd [2] | koff [2] | kon [2]
1 | ASSRSSSRSRGNSRN [synthesized peptide ASSRSSSRSRGNSRN (aa 183–197 of SARS_N)] | 148 ± 12 µM | – | – | –
2 | B1 | – | 0.35 ± 0.02 µM | 0.00206 s⁻¹ | 5830 M⁻¹ s⁻¹
